How the values were obtained:
Experiment in all cases: two-hybrid library CCNG1;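 further: natural log of median RNA to DNA barcode read ratio; higher means stronger binding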
P1A-bP = target: T1, P1A-bP
T1 chain: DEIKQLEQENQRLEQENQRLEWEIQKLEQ

P2A-bP = target: T2, P2A-bP
T2 chain: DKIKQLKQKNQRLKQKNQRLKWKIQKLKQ

P3A-bP = target: T3, P3A-bP
T3 chain: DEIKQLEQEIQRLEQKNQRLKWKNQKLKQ

P4A-bP = target: T4, P4A-bP
T4 chain: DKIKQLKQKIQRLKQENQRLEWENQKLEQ

P5A-bP = target: T5, P5A-bP
T5 chain: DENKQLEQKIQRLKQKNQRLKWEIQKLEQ

P6A-bP = target: T6, P6A-bP
T6 chain: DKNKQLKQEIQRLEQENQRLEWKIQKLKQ

P7A-bP = target: T7, P7A-bP
T7 chain: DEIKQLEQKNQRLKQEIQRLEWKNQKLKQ

P8A-bP = target: T8, P8A-bP
T8 chain: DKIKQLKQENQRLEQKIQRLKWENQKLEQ

P9A-bP = target: T9, P9A-bP
T9 chain: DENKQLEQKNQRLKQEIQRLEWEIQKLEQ

P12A-bP = target: T10, P12A-bP
T10 chain: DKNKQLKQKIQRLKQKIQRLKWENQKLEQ

4H2253-bH = target: T11, 4H2253-bH
T11 chain: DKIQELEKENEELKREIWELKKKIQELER

4H235-bH = target: T12, 4H235-bH
T12 chain: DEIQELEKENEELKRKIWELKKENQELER

4H2444-bH = target: T13, 4H2444-bH
T13 chain: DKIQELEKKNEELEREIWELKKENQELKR

4H2518-bH = target: T14, 4H2518-bH
T14 chain: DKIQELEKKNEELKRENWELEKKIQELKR

4H2585-bH = target: T15, 4H2585-bH
T15 chain: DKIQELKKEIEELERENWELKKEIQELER

4H264-bH = target: T16, 4H264-bH
T16 chain: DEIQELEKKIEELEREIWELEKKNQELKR

4H2760-bH = target: T17, 4H2760-bH
T17 chain: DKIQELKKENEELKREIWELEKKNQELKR

4H2859-bH = target: T18, 4H2859-bH
T18 chain: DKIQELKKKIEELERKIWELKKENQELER

4H2931-bH = target: T19, 4H2931-bH
T19 chain: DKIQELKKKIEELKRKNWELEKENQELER

4H3041-bH = target: T20, 4H3041-bH
T20 chain: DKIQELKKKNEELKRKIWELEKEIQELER

4H3297-bH = target: T21, 4H3297-bH
T21 chain: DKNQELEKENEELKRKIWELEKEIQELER

4H3364-bH = target: T22, 4H3364-bH
T22 chain: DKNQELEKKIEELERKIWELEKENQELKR

4H3381-bH = target: T23, 4H3381-bH
T23 chain: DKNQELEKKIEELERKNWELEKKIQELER

4H349-bH = target: T24, 4H349-bH
T24 chain: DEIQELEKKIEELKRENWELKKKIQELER

4H56-bH = target: T25, 4H56-bH
T25 chain: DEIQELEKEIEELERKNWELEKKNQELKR

4H730-bH = target: T26, 4H730-bH
T26 chain: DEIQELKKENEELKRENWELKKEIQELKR

4H796-bH = target: T27, 4H796-bH
T27 chain: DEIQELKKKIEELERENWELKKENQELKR

4H932-bH = target: T28, 4H932-bH
T28 chain: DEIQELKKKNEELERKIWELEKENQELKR

4H949-bH = target: T29, 4H949-bH
T29 chain: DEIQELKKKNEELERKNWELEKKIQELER

4H1373-bA = target: T30, 4H1373-bA
T30 chain: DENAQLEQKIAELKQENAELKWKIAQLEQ

4H1449-bA = target: T31, 4H1449-bA
T31 chain: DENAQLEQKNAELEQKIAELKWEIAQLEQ

4H1544-bA = target: T32, 4H1544-bA
T32 chain: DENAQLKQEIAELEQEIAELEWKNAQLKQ

4H1710-bA = target: T33, 4H1710-bA
T33 chain: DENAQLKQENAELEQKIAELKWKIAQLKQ

4H1899-bA = target: T34, 4H1899-bA
T34 chain: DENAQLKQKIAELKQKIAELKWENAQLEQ

4H1985-bA = target: T35, 4H1985-bA
T35 chain: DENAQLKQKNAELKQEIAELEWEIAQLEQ

4H2691-bA = target: T36, 4H2691-bA
T36 chain: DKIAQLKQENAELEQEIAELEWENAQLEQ

4H3162-bA = target: T37, 4H3162-bA
T37 chain: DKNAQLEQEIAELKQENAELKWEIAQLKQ

4H3175-bA = target: T38, 4H3175-bA
T38 chain: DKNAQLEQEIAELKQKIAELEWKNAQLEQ

4H3277-bA = target: T39, 4H3277-bA
T39 chain: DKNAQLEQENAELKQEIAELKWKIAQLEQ

4H3298-bA = target: T40, 4H3298-bA
T40 chain: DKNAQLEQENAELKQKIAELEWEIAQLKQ

4H3462-bA = target: T41, 4H3462-bA
T41 chain: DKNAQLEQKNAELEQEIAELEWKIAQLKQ

4H3497-bA = target: T42, 4H3497-bA
T42 chain: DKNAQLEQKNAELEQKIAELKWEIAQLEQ

4H3613-bA = target: T43, 4H3613-bA
T43 chain: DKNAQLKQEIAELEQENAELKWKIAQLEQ

4H3628-bA = target: T44, 4H3628-bA
T44 chain: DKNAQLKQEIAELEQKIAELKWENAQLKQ

4H3817-bA = target: T45, 4H3817-bA
T45 chain: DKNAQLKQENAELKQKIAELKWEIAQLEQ

4H3858-bA = target: T46, 4H3858-bA
T46 chain: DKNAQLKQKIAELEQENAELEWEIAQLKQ

4H3926-bA = target: T47, 4H3926-bA
T47 chain: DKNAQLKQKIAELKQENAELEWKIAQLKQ

4H3974-bA = target: T48, 4H3974-bA
T48 chain: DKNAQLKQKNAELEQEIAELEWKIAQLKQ

4H570-bA = target: T49, 4H570-bA
T49 chain: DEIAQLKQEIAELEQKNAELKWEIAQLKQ

4H591-bA = target: T50, 4H591-bA
T50 chain: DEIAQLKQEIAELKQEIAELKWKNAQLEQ

4H619-bN = target: T51, 4H619-bN
T51 chain: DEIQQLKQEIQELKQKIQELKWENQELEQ

4H626-bA = target: T52, 4H626-bA
T52 chain: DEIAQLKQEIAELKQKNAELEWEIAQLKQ

4H850-bA = target: T53, 4H850-bA
T53 chain: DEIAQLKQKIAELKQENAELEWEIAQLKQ

4H906-bA = target: T54, 4H906-bA
T54 chain: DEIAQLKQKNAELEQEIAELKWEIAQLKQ

4H2859-bN = target: T55, 4H2859-bN
T55 chain: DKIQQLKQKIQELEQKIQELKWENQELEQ

4H2931-bN = target: T56, 4H2931-bN
T56 chain: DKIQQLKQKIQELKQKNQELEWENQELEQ

4H3041-bN = target: T57, 4H3041-bN
T57 chain: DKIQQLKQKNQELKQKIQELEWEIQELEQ

4H3297-bN = target: T58, 4H3297-bN
T58 chain: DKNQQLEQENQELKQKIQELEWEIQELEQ

4H3364-bN = target: T59, 4H3364-bN
T59 chain: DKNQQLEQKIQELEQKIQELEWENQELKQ

4H3381-bN = target: T60, 4H3381-bN
T60 chain: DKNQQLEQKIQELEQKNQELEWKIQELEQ

4H349-bN = target: T61, 4H349-bN
T61 chain: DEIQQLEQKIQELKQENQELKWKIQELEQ

4H56-bN = target: T62, 4H56-bN
T62 chain: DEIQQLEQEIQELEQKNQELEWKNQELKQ

4H730-bN = target: T63, 4H730-bN
T63 chain: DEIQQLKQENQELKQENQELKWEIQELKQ

4H796-bN = target: T64, 4H796-bN
T64 chain: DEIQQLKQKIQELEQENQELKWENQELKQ

4H932-bN = target: T65, 4H932-bN
T65 chain: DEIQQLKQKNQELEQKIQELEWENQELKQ

4H949-bN = target: T66, 4H949-bN
T66 chain: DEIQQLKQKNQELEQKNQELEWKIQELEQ

O11-bH = target: T67, O11-bH
T67 chain: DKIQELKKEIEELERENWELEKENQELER

DEIKQLEQENQRLEQENQRLEWEIQKLEQ [P1A-bP]
interaction score (P1A-bP): -1.8 | interaction score (P2A-bP): 1.97 | interaction score (P3A-bP): -0.629 | interaction score (P4A-bP): -1.23 | interaction score (P5A-bP): -0.589 | interaction score (P6A-bP): -0.151 | interaction score (P7A-bP): -0.745 | interaction score (P8A-bP): -0.0351 | interaction score (P9A-bP): -2.64

DKNKQLKQKIQRLKQKIQRLKWENQKLEQ [P12A-bP]
interaction score (P12A-bP): -1.39 | interaction score (P1A-bP): -0.938 | interaction score (P2A-bP): -1.47 | interaction score (P3A-bP): 1.06 | interaction score (P4A-bP): -1.3 | interaction score (P5A-bP): -1.95 | interaction score (P6A-bP): -1.09 | interaction score (P7A-bP): -1.24 | interaction score (P8A-bP): -1.36 | interaction score (P9A-bP): -0.693

DKIQELEKENEELKREIWELKKKIQELER [4H2253-bH]
interaction score (4H2253-bH): 0.888 | interaction score (4H235-bH): 0.172 | interaction score (4H2444-bH): -0.045 | interaction score (4H2518-bH): 0.157 | interaction score (4H2585-bH): -1.52 | interaction score (4H264-bH): 0.653 | interaction score (4H2760-bH): 0.899 | interaction score (4H2859-bH): 0.651 | interaction score (4H2931-bH): -0.195 | interaction score (4H3041-bH): 0.872 | interaction score (4H3297-bH): 0.617 | interaction score (4H3364-bH): 0.0509 | interaction score (4H3381-bH): 0.131 | interaction score (4H349-bH): -0.0717 | interaction score (4H56-bH): -2.53 | interaction score (4H730-bH): -0.37 | interaction score (4H796-bH): -0.124 | interaction score (4H932-bH): -0.937 | interaction score (4H949-bH): -0.427 | interaction score (P12A-bP): -0.712 | interaction score (P7A-bP): -1.72

DENAQLEQKIAELKQENAELKWKIAQLEQ [4H1373-bA]
interaction score (4H1373-bA): 0.464 | interaction score (4H1449-bA): -1.22 | interaction score (4H1544-bA): -0.914 | interaction score (4H1710-bA): -0.946 | interaction score (4H1899-bA): -1.03 | interaction score (4H1985-bA): -0.533 | interaction score (4H2691-bA): 0.119 | interaction score (4H3162-bA): -0.314 | interaction score (4H3175-bA): -0.89 | interaction score (4H3277-bA): -0.594 | interaction score (4H3298-bA): -0.776 | interaction score (4H3462-bA): -0.757 | interaction score (4H3497-bA): -1.17 | interaction score (4H3613-bA): 1.71 | interaction score (4H3628-bA): -0.805 | interaction score (4H3817-bA): -0.693 | interaction score (4H3858-bA): 1.36 | interaction score (4H3926-bA): 2.27 | interaction score (4H3974-bA): -0.681 | interaction score (4H570-bA): -0.799 | interaction score (4H591-bA): -0.592 | interaction score (4H619-bN): -0.473 | interaction score (4H626-bA): -1.61 | interaction score (4H850-bA): -0.104 | interaction score (4H906-bA): -1.26

DKIQQLKQKIQELEQKIQELKWENQELEQ [4H2859-bN]
interaction score (4H2859-bN): 0.927 | interaction score (4H2931-bN): -0.613 | interaction score (4H3041-bN): 0.995 | interaction score (4H3297-bN): 0.359 | interaction score (4H3364-bN): -0.713 | interaction score (4H3381-bN): -1.35 | interaction score (4H349-bN): -1.06 | interaction score (4H56-bN): 0.857 | interaction score (4H730-bN): -1.23 | interaction score (4H796-bN): -1.23 | interaction score (4H932-bN): -1.18 | interaction score (4H949-bN): -2.31 | interaction score (O11-bH): 0.17

Reference: publication PMC10397247
